Experimental data published in patent US20180273635A1 (Zymeworks, published 2018).

What was measured:
Recombinant human HER2 [1] = target: T1, Recombinant human HER2 (human, UniProt P04626 23-652); test: SPR, 25 C; Ka ratio to WT v10013;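 also: constructs captured via anti-human Fc on CM5 chip, HER2 ECD as analyte in duplicate dilutions, sensorgrams globally fit to 1:1 Langmuir model on Biacore T200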
T1 construct: extracellular domain; Analyte of the SPR assays; also called HER2 ECD; ECD2 of HER2
Method: (§1) The affinity towards HER2 ECD of the samples was measured by SPR on a Biacore T200 as follows. Between 2000 and 4000 RU of anti-human Fc injected at concentration between 5 and 10 μg/ml was immobilized on a CM5 chip using standard amine coupling. Antigen-binding constructs were captured on the anti-human Fc (injected at concentration at 0.51 microg/mL in PBST, 1 min at 10 microl/min) at response levels ranging from 120-270 RU. […] HER2 dilutions were analyzed in duplicates. Sensograms were fit globally to a 1: 1 Langmuir binding model, using the software provided with the Biacore T200. All experiments were conducted at 25° C.

Recombinant human HER2 [2] = target: T1, Recombinant human HER2; test: calculated from the SPR Ka ratio to WT v10013;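 also: SPR at 25 °C with constructs captured on an anti-human Fc chip and HER2 extracellular domain as analyte, kinetics fitted to a 1:1 Langmuir model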
Method: as §1

Recombinant human HER2 [3] = target: T1, Recombinant human HER2; test: SPR, Biacore T200, 25 C; variant captured on anti-human Fc, HER2 flowed;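 also: HER2 extracellular domain analyte run as duplicate dilutions over amine-coupled anti-Fc on a CM5 chip, rates from global sensorgram fitting with a 1:1 Langmuir model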

Ka, mut/Ka, WT (Recombinant human HER2 [1]) [fold] | ΔΔG (Recombinant human HER2 [2]) [kcal/mol] | Kd (Recombinant human HER2 [3]) [nM] | koff (Recombinant human HER2 [3]) [s⁻¹] | kon (Recombinant human HER2 [3]) [M⁻¹ s⁻¹] | Binder
15 | -1.6 | 1.2 | 7.9e-05 | 64000 | Variant 14040 (antibody, human IgG1, kappa, OA (one-armed) format; clones 8783, 1811, 4372; also called v14040) heavy: EVQLVESGGGLVQPGGSLRLSCAASGFTFTDYTMDWVRQAPGKGLEWVADVNPNSGGSIYNQRFKGRFTLSVDRSENTLYLQMNSLRAEDTAVYYCARNLGPWFYFDYWGQGTLVTVSSASTKGPSVFPLAPSSKSTSGGTAALGCLVKDYFPEPVTVSWNSGALTSGVHTFPAVLQSSGLYSLSSVVTVPSSSLGTQTYICNVNHKPSNTKVDKKVEPKSCDKTHTCPPCPAPELLGGPSVFLFPPKPKDTLMISRTPEVTCVVVDVSHEDPEVKFNWYVDGVEVHNAKTKPREEQYNSTYRVVSVLTVLHQDWLNGKEYKCKVSNKALPAPIEKTISKAKGQPREPQVYVYPPSRDELTKNQVSLTCLVKGFYPSDIAVEWESNGQPENNYKTTPPVLDSDGSFALVSKLTVDKSRWQQGNVFSCSVMHEALHNHYTQKSLSLSPG light: not shown not shown
17 | -1.7 | 1.1 | 5.8e-05 | 51000 | Variant 14041 (antibody, human IgG1, kappa, OA (one-armed) format; clones 8785, 1811, 4372; also called v14041) heavy: EVQLVESGGGLVQPGGSLRLSCAASGFTFYDYTMDWVRQAPGKGLEWVADVNPNSGGSIYNQRFKGRFTLSVDRSKNTLYLQMNSLRAEDTAVYYCARNLGPWFYFDYWGQGTLVTVSSASTKGPSVFPLAPSSKSTSGGTAALGCLVKDYFPEPVTVSWNSGALTSGVHTFPAVLQSSGLYSLSSVVTVPSSSLGTQTYICNVNHKPSNTKVDKKVEPKSCDKTHTCPPCPAPELLGGPSVFLFPPKPKDTLMISRTPEVTCVVVDVSHEDPEVKFNWYVDGVEVHNAKTKPREEQYNSTYRVVSVLTVLHQDWLNGKEYKCKVSNKALPAPIEKTISKAKGQPREPQVYVYPPSRDELTKNQVSLTCLVKGFYPSDIAVEWESNGQPENNYKTTPPVLDSDGSFALVSKLTVDKSRWQQGNVFSCSVMHEALHNHYTQKSLSLSPG light: not shown not shown
15 | -1.6 | 1.2 | 5.9e-05 | 47000 | Variant 14042 (antibody, human IgG1, kappa, OA (one-armed) format; clones 8788, 1811, 4372; also called v14042) heavy: EVQLVESGGGLVQPGGSLRLSCAASGFTFQDYTMDWVRQAPGKGLEWVADVNPNSGYSIYNQRFKGRFTLSVDRSKNTLYLQMNSLRAEDTAVYYCARNLGPSFYFDYWGQGTLVTVSSASTKGPSVFPLAPSSKSTSGGTAALGCLVKDYFPEPVTVSWNSGALTSGVHTFPAVLQSSGLYSLSSVVTVPSSSLGTQTYICNVNHKPSNTKVDKKVEPKSCDKTHTCPPCPAPELLGGPSVFLFPPKPKDTLMISRTPEVTCVVVDVSHEDPEVKFNWYVDGVEVHNAKTKPREEQYNSTYRVVSVLTVLHQDWLNGKEYKCKVSNKALPAPIEKTISKAKGQPREPQVYVYPPSRDELTKNQVSLTCLVKGFYPSDIAVEWESNGQPENNYKTTPPVLDSDGSFALVSKLTVDKSRWQQGNVFSCSVMHEALHNHYTQKSLSLSPG light: not shown not shown
57 | -2.4 | 0.33 | 3.2e-05 | 96000 | Variant 14044 (antibody, human IgG1, kappa, OA (one-armed) format; clones 8774, 7919, 4372; also called v14044) heavy: EVQLVESGGGLVQPGGSLRLSCAASGFTFTDYTMDWVRQAPGKGLEWVADVNPNSGGSIYNQRFKGRFTLSVDRSWNTLYLQMNSLRAEDTAVYYCARNLGPWFYFDYWGQGTLVTVSSASTKGPSVFPLAPSSKSTSGGTAALGCLVKDYFPEPVTVSWNSGALTSGVHTFPAVLQSSGLYSLSSVVTVPSSSLGTQTYICNVNHKPSNTKVDKKVEPKSCDKTHTCPPCPAPELLGGPSVFLFPPKPKDTLMISRTPEVTCVVVDVSHEDPEVKFNWYVDGVEVHNAKTKPREEQYNSTYRVVSVLTVLHQDWLNGKEYKCKVSNKALPAPIEKTISKAKGQPREPQVYVYPPSRDELTKNQVSLTCLVKGFYPSDIAVEWESNGQPENNYKTTPPVLDSDGSFALVSKLTVDKSRWQQGNVFSCSVMHEALHNHYTQKSLSLSPG light: not shown not shown
